What all share (experiment): SPR, AAV on CM5 chip
Experiment [1] deals with AAV8 (adeno-associated virus serotype 8).
For experiment [2], the target named is AAV5 (adeno-associated virus serotype 5).
Experiment [3] concerns the target AAV9 (adeno-associated virus serotype 9).

Drawing on patent publication US20260193326A1, this text covers Kd, koff and kon for eight molecules.

B1: A4-D5 (protein)
chain: VQLQESGGGLVQPGGSLRLSCVASGSSFSINTMGWYRRAPGKQRELVATVTRDGSTNYANSVKGRFTISRDNAKNTVYLQMNSLRPEDTAVYYCHVDEVRQSSWTTSNLWGQGTQVTVSSGGGGSGGGGSGGGGSVQLQESGGGLVQPGGSLRLSCVASGSSFSINTMGWYRRAPGKQRELVATVTRDGSTNYANSVKGRFTISRDNAKNTVYLQMNSLRPEDTAVYYCHVDEVRQSSWTTSNLWGQGTQVTVSSGGGGSGGGGSGGGGSVQLQESGGGLVQPGGSLRLSCVASGSSFSINTMGWYRQAPGKQRELVATVTRDGSTNYANSVKGRFTISRDNAKNTVYLQMNSLRPEDTAVYYCHVDEVRQSSWTTSNLWGQGTQVTVSSGGGGSGGGGSGGGGSVQLQESGGGLVQPGGSLRLSCVASGSSFSINTMGWYRRAPGKQRELVATVTRDGSTNYANSVKGRFTISRDNAKNTVYLQMNSLRPEDTAVYYCHVDEVRQSSWTTSNLWGQGTQVTVSS
With B1, in experiment [1], the Kd (commonly the constant that tells how readily two partners part at equilibrium) was determined as 0.0836 nM; the off-rate constant (koff) (usually the first-order rate constant of dissociation) was 5e-06 s⁻¹; the kon (in general, the second-order rate constant of association) amounted to 59800 M⁻¹ s⁻¹. In experiment [2], this molecule showed a Kd of 0.318 nM, a dissociation rate constant (koff) of 1.34e-05 s⁻¹ and a kon of 42100 M⁻¹ s⁻¹. In experiment [3], this molecule returned a Kd of 0.117 nM, a koff of 4.3e-06 s⁻¹ and a kon of 36900 M⁻¹ s⁻¹.

B2: A4-D8 (bispecific antibody)
chain: VQLQESGGGLVQPGGSLRLSCAASGSRFSLNTMGWYRQAPGKQRELVATVTRGGSTNYADSVKGRFTISRDNAKNTVYLQMNSLRPEDTAVYYCHVDELRESGWTTSNLWGQGTQVTVSSGGGGSGGGGSGGGGSVQLQESGGGLVQPGGSLRLSCAASGSRFSLNTMGWYRQAPGKQRELVATVTRGGSTNYADFVKGRFTISRDNAKNTVYLQMNSLRPEDTAVYYCHVDELRESGWTTSNLWGQGTQVTVSSGGGGSGGGGSGGGGSVQLQESGGGLVHSGGSLRLSCAASGSMFSLNTMGWYRQAPGKQRELVATITRGGGTSYADSVKGRFTISRDNAKNTVYLQMNSLRPEDTAVYYCHVDELRQSSWTTSNLWGQGTQVTVSSGGGGSGGGGSGGGGSVQLQESGGGLVQPGGSLRLSCAASGSRFSLNTMGWYRQAPGKQRELVATVTRGGSTNYADFVKGRFTISRDNAKNTVYLQMNSLRPEDTAVYYCHVDELRESGWTTSNLWGQGTQVTVSS
As to B2, in experiment [1], the Kd was 0.228 nM, the koff is 1.1e-05 s⁻¹ and the kon was 48200 M⁻¹ s⁻¹. Besides, in experiment [2], the Kd was 1.49 nM, the koff came out at 1.96e-05 s⁻¹ and the kon was 13200 M⁻¹ s⁻¹. Also, in experiment [3], the Kd was 0.313 nM, the koff is 1.32e-05 s⁻¹ and the kon was 42200 M⁻¹ s⁻¹.

B3: A4-D7 (bispecific antibody)
chain: VQLQESGGGLVQTGGSLRLSCAASGRAFSLNTMGWYRQAPGKWRELVATVTRGGSTNYAGSVKGRFTISRDNAKNTVYLQMNNLRPEDTAVYYCHVDEVRESSWTTSNLWGQGTQVTVSSGGGGSGGGGSGGGGSVQLQESGGGLVQPGGSLRLSCAASGSIFTINSMGWYRQAPGKWRELVATVTRGGNTNYANSVKGRFTISRDNAKNTVYLQMNTLRPEDTAVYYCHLDEVRDSSWTTSNLWGQGTQVTVSSGGGGSGGGGSGGGGSVQLQESGGGLVQPGGSLRLSCAASGSIFSINSMGWYRQAPGKWRELVATVTRGGSTNYANSVKGRFTISRDNAKNTVYLQMNTLRPEDTAVYYCHLDEVRDSSWTTSNLWGQGTQVTVSSGGGGSGGGGSGGGGSVQLQESGGGLVQTGGSLRLSCAASGRAFSLNTMGWYRQAPGKWRELVATVTRGGSTNYAGSVKGRFTISRDNAKNTVYLQMNNLRPEDTAVYYCHVDEVRESSWTTSNLWGQGTQVTVSS
With B3, in experiment [1], the Kd came out at 1.41 nM, the koff stood at 1.79e-05 s⁻¹ and the kon worked out at 12700 M⁻¹ s⁻¹. In experiment [2], the Kd was 0.216 nM, the koff turned out to be 4.9e-06 s⁻¹ and the kon was found to be 22700 M⁻¹ s⁻¹. In experiment [3], this molecule came in with a Kd of 0.658 nM, a koff of 9.4e-06 s⁻¹ and a kon of 14300 M⁻¹ s⁻¹.

B4: A4-D1 (VHH)
chain: VQLQESGGGLAQAGGSLRLSCAASGRGFSINTMGWYRQAPGKQRELVAAVTRGGTTNYADSVKGRFTISRDNAKNTVYLQMNSLRPEDTAVYYCHVDEVRQSSWTTSNLWGQGTQVTVSSGGGGSGGGGSGGGGSVQLQESGGGLAQAGGSLRLSCAASGRGFSINTMGWYRQAPGKQRELVAAVTRGGTTNYADSVKGRFTISRDNAKNTVYLQMNSLRPEDTAVYYCHVDEVRQSSWTTSNLWGQGTQVTVSSGGGGSGGGGSGGGGSVQLQESGGGLAQAGGSLRLSCAASGRGFSINTMGWYRQAPGKQRELVAAVTRGGTTNYADSVKGRFTISRDNAKNTVYLQMNSLRPEDTAVYYCHVDEVRQSSWTTSNLWGQGTQVTVSSGGGGSGGGGSGGGGSVQLQESGGGLAQAGGSLRLSCAASGRGFSINTMGWYRQAPGKQRELVAAVTRGGTTNYADSVKGRFTISRDNAKNTVYLQMNSLRPEDTAVYYCHVDEVRQSSWTTSNLWGQGTQVTVSS
In experiment [1], B4 registered a Kd of 0.0543 nM, a koff of 1.81e-05 s⁻¹ and an on-rate (kon) of 334000 M⁻¹ s⁻¹. Also, in experiment [2], the Kd amounted to 0.0576 nM, the off-rate (koff) was found to be 2.2e-06 s⁻¹ and the kon turned out to be 38200 M⁻¹ s⁻¹. In experiment [3], this molecule yielded a Kd of 0.0533 nM, a koff of 3.1e-06 s⁻¹ and a kon of 58200 M⁻¹ s⁻¹.

B5: A4-D2 (VHH)
chain: VQLQESGGGLVQAGGSLRLSCAASGRGFSINTMGWYRQAPGKQRELVAAVTRGGTTNYADSVKGRFTISRDNAKNTVYLQMNSLRPEDTAVYYCHVDEVRQSSWTTSNLWGQGTQVTVSSGGGGSGGGGSGGGGSVQLQESGGGLVQAGGSLRLSCAASGRGFSINTMGWYRQAPGKQRELVAAVTRGGTTNYADSVKGRFTISRDNAKNTVYLQMNSLRPEDTAVYYCHVDEVRQSSWTTSNLWGQGTQVTVSSGGGGSGGGGSGGGGSVQLQESGGGLVQAGGSLRLSCAASGRGFSINTMGWYRQAPGKQRELVAAVTRGGTTNYADSVKGRFTISRDNAKNTVYLQMNSLRPEDTAVYYCHVDEVRQSSWTTSNLWGQGTQVTVSSGGGGSGGGGSGGGGSVQLQESGGGLVQAGGSLRLSCAASGRGFSINTMGWYRQAPGKQRELVAAVTRGGTTNYADSVKGRFTISRDNAKNTVYLQMNSLRPEDTAVYYCHVDEVRQSSWTTSNLWGQGTQVTVSS
Regarding B5, in experiment [1], the Kd amounted to 0.0821 nM, the off-rate (koff) turned out to be 3.6e-06 s⁻¹ and the kon amounted to 43900 M⁻¹ s⁻¹. In experiment [2], this molecule came in with a Kd of 0.0996 nM, a koff of 5.7e-06 s⁻¹ and a kon of 57200 M⁻¹ s⁻¹. For the same molecule, in experiment [3], the Kd worked out at 0.304 nM, the koff was found to be 9e-06 s⁻¹ and the kon amounted to 29600 M⁻¹ s⁻¹.

B6: A4-D4 (VHH)
chain: VQLQESGGGLAQAGGSLRLSCAASGRGFSINTMGWYRQAPGKQRELVAAVTRGGTTNYADSVKGRFTISRDNAKNTVYLQMNSLRPEDTAVYYCHVDEVRQSSWTTSNLWGQGTQVTVSSGGGGSGGGGSGGGGSVQLQESGGGLVQPGGSLRLSCAASGRGFSINTMGWYRQAPGKQRELVAAVTRGGTTNYADSVKGRFTISRDNAKNTVYLQMNSLRPEDTAVYYCHVDEVRQSSWTTSNLWGQGTQVTVSSGGGGSGGGGSGGGGSVQLQESGGGLAQAGGSLRLSCAASGRGFSINTMGWYRQAPGKQRELVAAVTRGGTTNYADSVKGRFTISRDNAKNTVYLQMNSLRPEDTAVYYCHVDEVRQSSWTTSNLWGQGTQVTVSSGGGGSGGGGSGGGGSVQLQESGGGLAQAGGSLRLSCAASGRGFSINTMGWYRQAPGKQRELVAAVTRGGTTNYADSVKGRFTISRDNAKNTVYLQMNSLRPEDTAVYYCHVDEVRQSSWTTSNLWGQGTQVTVSS
In experiment [1], B6 showed a Kd of 0.0802 nM, a koff of 1.7e-06 s⁻¹ and a kon of 21200 M⁻¹ s⁻¹. Further, in experiment [2], the dissociation constant Kd turned out to be 0.657 nM, the koff turned out to be 1.73e-05 s⁻¹ and the kon was 26300 M⁻¹ s⁻¹. In experiment [3], the Kd was determined as 0.073 nM, the koff amounted to 2.1e-06 s⁻¹ and the on-rate (kon) is 28800 M⁻¹ s⁻¹.

B7: A4-D3 (VHH)
chain: VQLQESGGGLAQAGGSLRLSCAASGRGFSINTMGWYRQAPGKQRELVAAVTRGGTTNYADSVKGRFTISRDNAKNTVYLQMNSLRPEDTAVYYCHVDEVRQSSWTTSNLWGQGTQVTVSSGGGGSGGGGSGGGGSVQLQESGGGLAQAGGSLRLSCAASGRGFSINTMGWYRQAPGKQRELVAAVTRGGTTNYADSVKGRFTISRDNAKNTVYLQMNSLRPEDTAVYYCHVDEVRQSSWTTSNLWGQGTQVTVSSGGGGSGGGGSGGGGSVQLQESGGGLAQAGGSLRLSCAASGRGFSINTMGWYRQAPGKQRELVAAVTRGGTTNYADSVKGRFTISRDNAKNTVYLQMNSLRPEDTAVYYCHVDEVRQSSWTTSNLWGQGTQVTVSSGGGGSGGGGSGGGGSVQLQESGGGLVQPGGSLRLSCAASGRGFSINTMGWYRQAPGKQRELVAAVTRGGTTNYADSVKGRFTISRDNAKNTVYLQMNSLRPEDTAVYYCHVDEVRQSSWTTSNLWGQGTQVTVSS
Take B7: in experiment [1], the Kd was found to be 0.0363 nM, the koff was 1.5e-06 s⁻¹ and the kon amounted to 41400 M⁻¹ s⁻¹. In experiment [2], this molecule registered a Kd of 0.209 nM, a koff of 3.6e-06 s⁻¹ and a kon of 17300 M⁻¹ s⁻¹. In experiment [3], this molecule returned a Kd of 0.0707 nM, a koff of 3.2e-06 s⁻¹ and a kon of 45300 M⁻¹ s⁻¹.

B8: A4-D6 (bispecific antibody)
chain: VQLQESGGGLVQTGGSLRLSCAASGRAFSLNTMGWYRQAPGKWRELVATVTRGGSTNYAGSVKGRFTISRDNAKNTVYLQMNNLRPEDTAVYYCHVDEVRESSWTTSNLWGQGTQVTVSSGGGGSGGGGSGGGGSVQLQESGGGLVQTGGSLRLSCAASGRAFSLNTMGWYRQAPGKWRELVATVTRGGSTNYAGSVKGRFTISRDNAKNTVYLQMNNLRPEDTAVYYCHVDEVRESSWTTSNLWGQGTQVTVSSGGGGSGGGGSGGGGSVQLQESGGGLVQPGGSLRLSCAASGSIFTINSMGWYRQAPGKWRELVATVTRGGNTNYANSVKGRFTISRDNAKNTVYLQMNTLRPEDTAVYYCHLDEVRDSSWTTSNLWGQGTQVTVSSGGGGSGGGGSGGGGSVQLQESGGGLVQPGGSLRLSCAASGSIFSINSMGWYRQAPGKWRELVATVTRGGSTNYANSVKGRFTISRDNAKNTVYLQMNTLRPEDTAVYYCHLDEVRDSSWTTSNLWGQGTQVTVSS
Take B8: in experiment [1], the Kd amounted to 1.02 nM, the off-rate constant (koff) stood at 1.63e-05 s⁻¹ and the kon was determined as 16000 M⁻¹ s⁻¹. Also, in experiment [2], the dissociation constant (Kd) was determined as 0.273 nM, the koff is 1.18e-05 s⁻¹ and the kon is 43300 M⁻¹ s⁻¹. In experiment [3], this molecule displayed a Kd of 0.155 nM, a koff of 3.4e-06 s⁻¹ and a kon of 21900 M⁻¹ s⁻¹.
